Molecular target: CD28 (human) (UniProt P10747)
Assay: cell-based or functional assay

| Fold Increase over WT CD80-IgV-Fc, same assay, 50 nM | IL-2-luciferase RLU, Jurkat + K562/OKT3/PD-L1 aAPC, 50 nM | Substance | other results |
| --- | --- | --- | --- |
| 0.6 fold | 358 RLU | variant CD80 IgV-Fc (inert) Q33L/E35D/N48K/L85Q/L97Q (Fc fusion) |  |
| 0.9 fold | 486 RLU | variant CD80 IgV-Fc (inert) H18Y/Q33L/E35D/M47I (Fc fusion) |  |
|  | 473 RLU | variant CD80 IgV-Fc (inert) E35D/M47I/E77A/L85Q/R94W (Fc fusion) |  |
|  | 468 RLU | variant CD80 IgV-Fc (inert) S15P/Q33L/E35D/M47L/L85Q (Fc fusion) |  |
| 5.9 fold | 3310 RLU | variant CD80 IgV-Fc (inert) V22A/R29H/E35D/D46E/M47I (Fc fusion) |  |
| 0.7 fold | 408 RLU | variant CD80 IgV-Fc (inert) H18Y/A26E/Q33L/E35D/M47L/L85Q (Fc fusion) |  |
| 4.7 fold | 2650 RLU | variant CD80 IgV-Fc (inert) H18L/V22A/E35D/M47L/N48T/L85Q (Fc fusion) |  |
|  | 572 RLU | variant CD80 IgV-Fc (inert) Q33L/E35D/M47L/V68M/L85Q/E88D (Fc fusion) |  |
| 0.9 fold | 527 RLU | variant CD80 IgV-Fc (inert) Q33L/E35D/M47V/T79A (Fc fusion) |  |
| 0.9 fold | 513 RLU | variant CD80 IgV-Fc (inert) Q27H/E35D/M47L/L85Q/R94Q/E95K (Fc fusion) |  |
| 0.7 fold | 416 RLU | variant CD80 IgV-Fc (inert) A26E/Q33L/E35D/M47L/L85Q (Fc fusion) |  |
|  | 463 RLU | variant CD80 IgV-Fc (inert) Q33L/E35D/M47I/T62N/L85Q (Fc fusion) |  |
| 4 fold |  | variant CD80 IgV-Fc (inert) E35D/D46V/M47I/A71G/F92V (Fc fusion) |  |
|  | 551 RLU | variant CD80 IgV-Fc (inert) Q27H/Q33L/E35D/M47V/N55D/L85Q/K89N (Fc fusion) |  |
| 5.7 fold | 3240 RLU | variant CD80 IgV-Fc (inert) E24D/Q33L/E35D/M47V/K54R/L85Q (Fc fusion) |  |
| 0.7 fold | 415 RLU | variant CD80 IgV-Fc (inert) Q33K/E35D/M47V/K89E/K93R (Fc fusion) |  |
|  |  | variant CD80 IgV-Fc (inert) A71D/L72V/E95K (Fc fusion) | IL-2-luciferase RLU, Jurkat + CHO/OKT3/PD-L1 aAPC, 0.6 nM: 524 RLU; IL-2-luciferase RLU, Jurkat + CHO/OKT3/PD-L1 aAPC, 1.9 nM: 530 RLU; IL-2-luciferase RLU, Jurkat + CHO/OKT3/PD-L1 aAPC, 5.6 nM: 617 RLU; IL-2-luciferase RLU, Jurkat + CHO/OKT3/PD-L1 aAPC, 16.7 nM: 641 RLU; IL-2-luciferase RLU, Jurkat + CHO/OKT3/PD-L1 aAPC, 50 nM: 755 RLU; IL-2-luciferase RLU, Jurkat + CHO/OKT3 aAPC (no PD-L1), 5.6 nM: 466 RLU; IL-2-luciferase RLU, Jurkat + CHO/OKT3 aAPC (no PD-L1), 16.7 nM: 547 RLU; IL-2-luciferase RLU, Jurkat + CHO/OKT3 aAPC (no PD-L1), 50 nM: 644 RLU |
|  | 473 RLU | variant CD80 IgV-Fc (inert) Q33L/E35D/M43V/M47I/A71G (Fc fusion) |  |
|  | 566 RLU | variant CD80 IgV-Fc (inert) H18Y/V20A/Q33L/E35D/M47V/Y53F (Fc fusion) |  |
| 0.9 fold | 504 RLU | variant CD80 IgV-Fc (inert) Q33K/E35D/D46V/L85Q (Fc fusion) |  |
| 0.9 fold | 526 RLU | variant CD80 IgV-Fc (inert) A26E/E35D/M43T/M47L/L85Q/R94Q (Fc fusion) |  |
|  | 553 RLU | variant CD80 IgV-Fc (inert) Q33L/E35D/M43I/L85Q/R94W (Fc fusion) |  |
